The Kd is the equilibrium constant for the complex coming apart.

The test deals with T1, hsa-1: WT - Full Length HSA (human, UniProt P02768 25-609).
T1 construct: Yeast-expressed; also called HSA-wt; wt-HSA; not shown: Factor Xa cleavage site
The test is described as follows: method and origin of the value not stated.

B1: recombinant mouse FcRn (R&D Systems, cat#6775-FC-050) (receptor)
chain 1: SETRPPLMYHLTAVSNPSTGLPSFWATGWLGPQQYLTYNSLRQEADPCGAWMWENQVSWYWEKETTDLKSKEQLFLEALKTLEKILNGTYTLQGLLGCELASDNSSVPTAVFALNGEEFMKFNPRIGNWTGEWPETEIVANLWMKQPDAARKESEFLLNSCPERLLGHLERGRRNLEWKEPPSMRLKARPGNSGSSVLTCAAFSFYPPELKFRFLRNGLASGSGNCSTGPNGDGSFHAWSLLEVKRGDEHHYQCQVEHEGLAQPLTVDLDSSARSS
chain 2: IQKTPQIQVYSRHPPENGKPNILNCYVTQFHPPHIEIQMLKNGKKIPKVEMSDMSFSKDWSFYILAHTEFTPTETDTYACRVKHASMAEPKTVYWDRDM
notes: Bought reagent
Turning to B1, the Kd is ~80 µM.

(Values after patent US20140315817A1 (ALBUMEDIX, published 2014).)
